Data from article PMC10728164.

Biological target: cardiac troponin I (human (endogenous in heart tissue)) (UniProt P19429)
Assay: affinity purification with mass spectrometry; co-purification of the cTn subunits from human heart extract on the cTnI-binding peptide nanoparticles (NP-Pep); 25 mM Tris pH 7.5, 700 mM LiCl, 4 °C; native elution; subunits in the eluate analysed (Supplementary Fig. 2, 3a) and by top-down RPLC-MS/MS

Chain of UniProt P19429 (P19429 whole entry): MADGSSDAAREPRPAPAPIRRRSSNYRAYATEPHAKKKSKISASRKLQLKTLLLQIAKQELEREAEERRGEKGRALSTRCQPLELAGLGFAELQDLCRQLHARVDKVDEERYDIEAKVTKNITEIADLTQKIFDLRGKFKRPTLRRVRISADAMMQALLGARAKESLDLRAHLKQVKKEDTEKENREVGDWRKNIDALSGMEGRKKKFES

stoichiometry N: 1
Substance: cardiac troponin T (natural protein)
